Reference: patent publication US20090004680A1

Biological target: Mouse synaptosomes (BoNT/A acceptor on a mouse synaptosome preparation)

“Inactivated BoNT/A (toxoid) (from UniProt P0DPI0 2-1296)” was tested, and the maximum percent inhibition was 98%.
